Assay results as given in patent US20250043302A1, “MUTATED HYDROXYPHENYLPYRUVATE DIOXYGENASE POLYPEPTIDE, AND CODING GENE AND USE THEREOF” (BEIJING DABEINONG BIOTECHNOLOGY CO., LTD., priority 2021, published 2025).
Numbering of substitutions follows the chain as printed. Numbers in names are those of the source.

B1: GsHPPDm-F372A-F383W-02: nucleotide sequence encoding Gossypium hirsutum HPPD with F372A+F383W; vector DBN11741 (nucleic acid)
DNA: ATGGTTCAAACAAATCAATCTGGTTCTGGGAATGATTTCAAGCTGGTTGGTTTCTCAAATTTTGTGCGTAGCAATCCCAAATCAGACCGCTTCACGGTCAAGAGATTCCACCACATTGAATTTTGGTGCACTGATGCCACTAATGTGGCGAGGAGGTTTTCATGGGGTTTAGGGATGCAGTTCGTCGCCAAGAGTGACCTCTCCACAGGAAATTTGACGCATGCAAGCTACCTGCTGCGGAGCCGCGACTTGAATTTCCTGTTTACAGCACCATATTCACCCAGTATTGCAGTTGCTCAAAACCTTTCGCCACAAAGCACTGCTTCCATACCTTCATTTGATCACTCGCTTTGTCGGTCCTTTGCTGCAACACATGGACTTGGCGTCAGAGCAATTGCCATCGAGGTGGACGACGCCGAAACTGCCTTCACCACGAGCGTGACACATGGCGCGCTCCCTTTTTGTCCACCAACACCACTAGGAGATGTGGCTACAATTGCTGAAGTTAAATTATATGGTGATGTTGTGCTCAGATATGTTTCTTACACCACAACCATCAACTCCGACCATGATTTTCTGCCTGGTTTTGAGAAGATTGAAGATACTCTATCGTATCCTTTGGATTATGGCCTGCGTCGGCTCGATCATGCTGTTGGCAACGTACCTGAATTAGGTCCTGCTGTATCTTATGTGAAATCTTTTACTGGGTTCCATGAGTTTGCAGAGTTCACCGCTGAGGATGTAGGAACAAGTGAATCTGGGCTGAACTCAGTTGTTTTGGCCAACAATGAGGAAATGGTCCTCTTACCAATGAACGAGCCGGTGTTCGGCACTAAGCGCAAATCTCAAATACAGACCTACTTGGAGCACAATGAAGGAGCTGGTGTGCAGCACCTCGCCCTCGTCTCGGAGGACATCTTCAAAACTTTAAGGGAGATGAGGAAACGATCCTTTGTGGGAGGATTTGAATTCATGCCTTCTCCGCCGCCGACATACTACAAGAAGCTCAAGCAGCGCGCGGGGGACATTTTGTCTGATGAGCAGATCAAGGAGTGTGAAGAGCTTGGGATTCTTGTTGATAGAGATGATCAAGGAACGCTTCTGCAGATAGCCACCAAGCCCGTCGGCGACCGGCCTACTATATGGATTGAGATCATCCAGAGAATTGGTTGCATGGTGAAGGATGAAGAAGGGAAACAGTACCAGAAGGGCGGCTGCGGCGGGTTTGGAAAAGGAAACTTCAGTGAGCTGTTTAAAAGTATAGAGGAGTATGAAAAGAGCTTGGAAGCAAAACAATCACAAAATCCATGA
modifications: GsHPPDm-F372A-F383W-02 Nucleotide Sequence
notes: vector DBN11741
B2: GsHPPDm-F372A-02: nucleotide sequence encoding Gossypium hirsutum HPPD with F372A; vector DBN11739 (nucleic acid)
DNA: B1 DNA with G1145T, G1146C
modifications: GsHPPDm-F372A-02 Nucleotide Sequence
notes: vector DBN11739

Key:
Format in all cases: in vivo
[1] = test system: Arabidopsis thaliana T1 plants; assay: Topramezone tolerance of transgenic Arabidopsis thaliana T1 plants (spray, bleached leaf area grade, damage score); conditions: 7 DAT, Table 4; for Classification and statistics of the grade of pesticide damage: Grade 0 / Classification and statistics of the grade of pesticide damage: Grade 1 / Classification and statistics of the grade of pesticide damage: Grade 2 / Classification and statistics of the grade of pesticide damage: Grade 3: number of plants; for Scores: pesticide damage score 0-100
In short: (§1)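 Damage was assessed by bleaching grade (0 none; 1 <50%; 2 >50%; 3 100% of leaf area) one week after spraying. Sprays on 18-day-old T1 and wild-type plants used field-rate multiples: topramezone 25–200, isoxaflutole 35–280, mesotrione 52.5–420 g ai/ha.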

[2] = test system: Arabidopsis thaliana T1 plants; assay: Isoxaflutole tolerance of transgenic Arabidopsis thaliana T1 plants (spray, bleached leaf area grade, damage score); set-up: Scores (pesticide damage): scale not given here; conditions: spray, Arabidopsis thaliana T1 plants; for Classification and statistics of the grade of pesticide damage: Grade 0 (number of plants) / Classification and statistics of the grade of pesticide damage: Grade 1 (number of plants) / Classification and statistics of the grade of pesticide damage: Grade 2 (number of plants) / Classification and statistics of the grade of pesticide damage: Grade 3 (number of plants): 16 plants
In short: as §1

[3] = test system: Arabidopsis thaliana T1 plants; assay: Mesotrione tolerance of transgenic Arabidopsis thaliana T1 plants (spray, bleached leaf area grade, damage score); set-up: Scores: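 damage score 0-100 computed as Σ(N×S)/(T×M)×100 over grades 0-3 with higher meaning more damage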; conditions: Arabidopsis thaliana T1 plants; for Grade 0 (classification and statistics of the grade of pesticide damage; number of plants) / Grade 1 (classification and statistics of the grade of pesticide damage; number of plants) / Grade 2 (classification and statistics of the grade of pesticide damage; number of plants) / Grade 3 (classification and statistics of the grade of pesticide damage; number of plants): 16 plants
In short: as §1

[4] = isoxaflutole 35 g ai/ha (0.5x field concentration)
[5] = isoxaflutole 70 g ai/ha (1x field concentration)

Molecule	Classification and statistics of the grade of pesticide damage: Grade 0 ([1]; topramezone 25 g ai/ha (1×))	Classification and statistics of the grade of pesticide damage: Grade 1 ([1]; topramezone 25 g ai/ha (1×))	Classification and statistics of the grade of pesticide damage: Grade 2 ([1]; topramezone 25 g ai/ha (1×))	Classification and statistics of the grade of pesticide damage: Grade 3 ([1]; topramezone 25 g ai/ha (1×))	Classification and statistics of the grade of pesticide damage: Grade 0 ([1]; topramezone 100 g ai/ha (4×))	Classification and statistics of the grade of pesticide damage: Grade 1 ([1]; topramezone 100 g ai/ha (4×))	Classification and statistics of the grade of pesticide damage: Grade 2 ([1]; topramezone 100 g ai/ha (4×))	Classification and statistics of the grade of pesticide damage: Grade 3 ([1]; topramezone 100 g ai/ha (4×))	Scores ([1]; topramezone 25 g ai/ha (1×))	Scores ([1]; topramezone 100 g ai/ha (4×))	Resistance evaluation ([1]; topramezone 25 g ai/ha (1×))	Resistance evaluation ([1]; topramezone 100 g ai/ha (4×))	Resistance evaluation [2, 4]	Scores (pesticide damage) [2, 4]	Classification and statistics of the grade of pesticide damage: Grade 0 (number of plants) [2, 4]	Classification and statistics of the grade of pesticide damage: Grade 1 (number of plants) [2, 4]	Classification and statistics of the grade of pesticide damage: Grade 2 (number of plants) [2, 4]	Classification and statistics of the grade of pesticide damage: Grade 3 (number of plants) [2, 4]	Resistance evaluation [2, 5]	Scores (pesticide damage) [2, 5]	other results
B1	16	0	0	0	5	7	2	2	0	35	highly	poorly	Highly	15	9	7	0	0	Poorly	48	Classification and statistics of the grade of pesticide damage: Grade 0 (number of plants) [2, 5]: 3; Classification and statistics of the grade of pesticide damage: Grade 1 (number of plants) [2, 5]: 5; Classification and statistics of the grade of pesticide damage: Grade 2 (number of plants) [2, 5]: 6; Classification and statistics of the grade of pesticide damage: Grade 3 (number of plants) [2, 5]: 2; Resistance evaluation ([3]; mesotrione 52.5 g ai/ha): Moderately; Scores ([3]; mesotrione 52.5 g ai/ha): 33; Grade 0 (classification and statistics of the grade of pesticide damage; number of plants) ([3]; mesotrione 52.5 g ai/ha): 3; Grade 1 (classification and statistics of the grade of pesticide damage; number of plants) ([3]; mesotrione 52.5 g ai/ha): 10; Grade 2 (classification and statistics of the grade of pesticide damage; number of plants) ([3]; mesotrione 52.5 g ai/ha): 3; Grade 3 (classification and statistics of the grade of pesticide damage; number of plants) ([3]; mesotrione 52.5 g ai/ha): 0; Resistance evaluation ([3]; mesotrione 105 g ai/ha): Non-resistant; Scores ([3]; mesotrione 105 g ai/ha): 77; Grade 0 (classification and statistics of the grade of pesticide damage; number of plants) ([3]; mesotrione 105 g ai/ha): 0; Grade 1 (classification and statistics of the grade of pesticide damage; number of plants) ([3]; mesotrione 105 g ai/ha): 0; Grade 2 (classification and statistics of the grade of pesticide damage; number of plants) ([3]; mesotrione 105 g ai/ha): 11; Grade 3 (classification and statistics of the grade of pesticide damage; number of plants) ([3]; mesotrione 105 g ai/ha): 5
B2	16	0	0	0	0	0	0	16	0	100	highly	non-resistant (non-resistant plants (scores 68-100))	Moderately	33	3	10	3	0	Non-resistant	100	Classification and statistics of the grade of pesticide damage: Grade 0 (number of plants) [2, 5]: 0; Classification and statistics of the grade of pesticide damage: Grade 1 (number of plants) [2, 5]: 0; Classification and statistics of the grade of pesticide damage: Grade 2 (number of plants) [2, 5]: 0; Classification and statistics of the grade of pesticide damage: Grade 3 (number of plants) [2, 5]: 16; Resistance evaluation ([3]; mesotrione 52.5 g ai/ha): Poorly resistant; Scores ([3]; mesotrione 52.5 g ai/ha): 54; Grade 0 (classification and statistics of the grade of pesticide damage; number of plants) ([3]; mesotrione 52.5 g ai/ha): 0; Grade 1 (classification and statistics of the grade of pesticide damage; number of plants) ([3]; mesotrione 52.5 g ai/ha): 8; Grade 2 (classification and statistics of the grade of pesticide damage; number of plants) ([3]; mesotrione 52.5 g ai/ha): 6; Grade 3 (classification and statistics of the grade of pesticide damage; number of plants) ([3]; mesotrione 52.5 g ai/ha): 2; Resistance evaluation ([3]; mesotrione 105 g ai/ha): Non-resistant; Scores ([3]; mesotrione 105 g ai/ha): 100; Grade 0 (classification and statistics of the grade of pesticide damage; number of plants) ([3]; mesotrione 105 g ai/ha): 0; Grade 1 (classification and statistics of the grade of pesticide damage; number of plants) ([3]; mesotrione 105 g ai/ha): 0; Grade 2 (classification and statistics of the grade of pesticide damage; number of plants) ([3]; mesotrione 105 g ai/ha): 0; Grade 3 (classification and statistics of the grade of pesticide damage; number of plants) ([3]; mesotrione 105 g ai/ha): 16
